Test results as given in patent US20240092914A1 (NEW PARADIGM BIOSCIENCES USA, published 2024).
Residue numbers refer to the chain shown, from its start. Several values for one entry are separate records, joined by “and”; a condition that tells them apart may be missing. Identical values can stand only once.

T1: human BDCA2 on human plasmacytoid dendritic cells (human, UniProt Q8WTT0 1-213)
T1 sequence (looked up): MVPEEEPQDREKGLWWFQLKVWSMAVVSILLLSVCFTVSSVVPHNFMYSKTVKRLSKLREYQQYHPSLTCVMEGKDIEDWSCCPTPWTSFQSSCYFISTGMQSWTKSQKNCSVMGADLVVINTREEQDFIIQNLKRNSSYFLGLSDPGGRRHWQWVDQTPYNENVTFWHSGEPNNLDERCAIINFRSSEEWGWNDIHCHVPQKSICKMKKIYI

T2: recombinant human BDCA2 extracellular domain (UniProt Q8WTT0, residues 45-213) (human, UniProt Q8WTT0 45-213)
T2 construct: range 45-213; also called recombinant BDCA2 proteins; BDCA2 proteins
T2 sequence (looked up): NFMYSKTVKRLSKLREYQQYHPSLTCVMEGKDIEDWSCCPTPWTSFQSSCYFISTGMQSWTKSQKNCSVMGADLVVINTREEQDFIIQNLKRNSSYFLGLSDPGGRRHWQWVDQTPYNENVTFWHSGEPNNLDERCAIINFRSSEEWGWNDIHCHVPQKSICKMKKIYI

T3: recombinant rhesus BDCA2 extracellular domain (UniProt A0A1D5QFY5, residues 45-212) (rhesus, UniProt G7N5W2 45-211)
T3 construct: also called Monkey BDCA2
T3 sequence: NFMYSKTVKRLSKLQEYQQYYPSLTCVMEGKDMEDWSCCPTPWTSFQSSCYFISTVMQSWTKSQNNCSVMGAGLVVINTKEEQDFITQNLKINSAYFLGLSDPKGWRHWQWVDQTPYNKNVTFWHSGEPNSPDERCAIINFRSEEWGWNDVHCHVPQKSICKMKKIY

T4: BDCA-2 antigen (Biorbyt CLEC4C orb358925) (human, UniProt Q8WTT0)
T4 construct: recombinant protein, construct not described; It is kept apart from m4 because it is a different preparation; also called human BDCA2 antigen
T4 sequence (antigen, looked up): T2 sequence (looked up)

B1: NPB-303 humanized anti-BDCA2 monoclonal antibody (huIgG1) (antibody, V domains shown)
VH: EVQLVESGGGLVKPGGSLRLSCAASGFTFSTMSWVRQAPGKRLEWVASISSGGSTYYPDSVKGRFTISRDNAKNSLYLQMNSLRAEDTAVYYCARPSYDGYSSWFAYWGQGTLVTVSS
VL: EIVLTQSPATLSLSPGERATLSCKASQSVDYDGDGFMNWYQQKPGQAPRLLIYTASNLESGVPARFSGSGSGTDFTLTISSLEPEDFAVYYCQQSNEDPWTFGGGTKVEIKR
notes: Humanized from mouse mAb 12b, human IgG1/kappa
B2: NPB-303_A (antibody, V domains shown)
VH: B1 VH with D99E
VL: EIVLTQSPATLSLSPGERATLSCKASQSVDYDGDGFMNWYQQKPGQAPRLLIYTASNLESGVPARFSGSGSGTDFTLTISSLEPEDFAVYYCQQSNEDPWTFGGGTKVEIK
notes: whole antibody captured by anti-human Fc
B3: NPB-303_A.D (antibody, V domains shown)
VH: B1 VH with D99E
VL: B2 VL with D32E, D34E
notes: whole antibody captured by anti-human Fc; Made at small (3 mL) and large (100 mL) scale
B4: NPB-303_A.E (antibody, V domains shown)
VH: B1 VH with D99E
VL: B2 VL with G33A, G35A
notes: as for B2
B5: NPB-303_A.F (antibody, V domains shown)
VH: B1 VH with D99E
VL: B2 VL with D32E, G35A
notes: as for B2
B6: NPB-303_A.G (antibody, V domains shown)
VH: B1 VH with D99E
VL: B2 VL with G33A, D34E
notes: as for B2
B7: NPB-303_A.H (antibody, V domains shown)
VH: B1 VH with D99E
VL: B2 VL with D32S, D34S
notes: as for B2
B8: NPB-303_B (antibody, V domains shown)
VH: B1 VH with G100A
VL: B2 VL
notes: as for B2
B9: NPB-303_B.E (antibody, V domains shown)
VH: B1 VH with G100A
VL: B2 VL with G33A, G35A
notes: as for B2
B10: NPB-303_B.F (antibody, V domains shown)
VH: B1 VH with G100A
VL: B2 VL with D32E, G35A
notes: as for B2
B11: NPB-303_B.G (antibody, V domains shown)
VH: B1 VH with G100A
VL: B2 VL with G33A, D34E
notes: as for B2
B12: NPB-303_B.H (antibody, V domains shown)
VH: B1 VH with G100A
VL: B2 VL with D32S, D34S
notes: as for B2
B13: NPB-303_C (antibody, V domains shown)
VH: B1 VH with D99S
VL: B2 VL
notes: as for B2
B14: NPB-303_C.E (antibody, V domains shown)
VH: B1 VH with D99S
VL: B2 VL with G33A, G35A
notes: as for B2
B15: NPB-303_C.F (antibody, V domains shown)
VH: B1 VH with D99S
VL: B2 VL with D32E, G35A
notes: as for B2
B16: NPB-303_C.H (antibody, V domains shown)
VH: B1 VH with D99S
VL: B2 VL with D32S, D34S
notes: as for B2
B17: NPB-303_D (antibody, V domains shown)
VH: B1 VH
VL: B2 VL with D32E, D34E
notes: as for B2
B18: NPB-303_F (antibody, V domains shown)
VH: B1 VH
VL: B2 VL with D32E, G35A
notes: as for B2
B19: NPB-303_G (antibody, V domains shown)
VH: B1 VH
VL: B2 VL with G33A, D34E
notes: as for B2

Assays:
[1] = target: human BDCA2 on human plasmacytoid dendritic cells (human) (UniProt Q8WTT0); test: flow cytometry on human PBMC with APCCy7-labelled control antibody, gate Lin- then CD4+CD123+ (pDC)
[2] = target: T1, human BDCA2 on human plasmacytoid …; test: cell-based or functional assay
[3] = target: T2, recombinant human BDCA2 extracellular …; test: SPR / in vitro binding to BDCA2 proteins (FIG. 7, FIG. 8)
[4] = target: T2, recombinant human BDCA2 extracellular …; test: SPR (Biacore), antibody captured on Protein A chip, recombinant BDCA2 ECD flowed over
Protocol: (§1) BDCA2 antibody binding kinetics were measured using a Biacore surface plasmon resonance (SPR) instrument (GE Life Sciences). Briefly, anti-BDCA2 antibodies were captured on a Protein A sensor chip (GE Life Sciences). The recombinant BDCA2 proteins were then flowed over the captured antibodies over a range of concentrations, at a rate of 50 μL/minute. The data was analyzed to determine kinetic constants using the BIAevaluation software package (GE Life Sciences).

[5] = target: T3, recombinant rhesus BDCA2 extracellular …; test: as above
Protocol: as §1

[6] = target: T2, recombinant human BDCA2 extracellular …; test: SPR (Biacore), antibody captured on anti-human Fc chip, recombinant BDCA2 flowed over; small-scale batch
Protocol: (§2) BDCA2 antibody binding kinetics were measured using a Biacore surface plasmon resonance (SPR) instrument (GE Life Sciences). Briefly, anti-BDCA2 antibodies were captured on an anti-human Fc chip. The recombinant BDCA2 proteins were then flowed over the captured antibodies over a range of concentrations, at a rate of 50 μL/minute. The data was analyzed to determine kinetic constants using the BIAevaluation software package (GE Life Sciences). The sensorgrams of SPR based affinity testing for all 24 antibodies are shown in FIG. 55, and the biophysical characteristics of all 24 antibodies are summarized in Table 5.

[7] = target: T4, BDCA-2 antigen (Biorbyt CLEC4C …); test: ELISA, plate coated with BDCA-2 antigen, detection with HRP anti-human IgG Fc, A450 corrected by A590
Protocol: Briefly, Nunc MaxiSorp 96-well plates were coated with BDCA-2 antigen (Biorbyt CLEC4C orb358925) overnight at 4° C. After washing, the plates were blocked by the Blocking Buffer (1% BSA in 1×PBS). […] After 1 hour incubation at room temperature, the plates were washed and added with the secondary antibody (HIRP-conjugated Goat anti-Human IgG Fc antibody; ThermoFisher A18829) for 1 hour at RT. The signals were developed by adding TMB substrate reagent (ThermoFisher 34021). The signals at 450 nm and 590 nm were read on the plate reader.

[8] = target: T2, recombinant human BDCA2 extracellular …; test: SPR (Biacore), antibody as ligand, HsCD303HIS as sample, 25 °C, 1:1 Binding fit; Table 1 prints 7.29 x 10^5, but the sheet's exponent fits the printed kd 3.271E-4 and KD 4.487E-9
[9] = target: T2, recombinant human BDCA2 extracellular …; test: SPR (Biacore), recombinant BDCA2; large-scale (100 mL) batch
Protocol: as §2

| Kd [6] [nM] | koff [6] [s⁻¹] | kon [6] [M⁻¹ s⁻¹] | also measured | Molecule |
| --- | --- | --- | --- | --- |
| – | – | – | % of the gated Lin-CD123+ cells in Q2 (CD123+, APCCy7+) [1]: 7.29% | mIgG1-APCCy7 (antibody) |
| 1.19 | 0.000156 | 131000 | IC50 of inhibition of IFNα production by CpG-stimulated human PBMC (multiple donors) [2]: ~3 ng/mL; Kd [3]: ~1 nM; koff [3]: ~0.00033 s⁻¹; kon [3]: ~210000 M⁻¹ s⁻¹; koff [4]: 0.000327 s⁻¹; Kd [5]: 9.2 nM; koff [5]: 0.00157 s⁻¹; kon [5]: 170000 M⁻¹ s⁻¹; EC50 (read off the curve) [7]: ~0.5 nM and ~0.3 nM; kon [8]: 72900 M⁻¹ s⁻¹ | B1 |
| 1.01 | 0.000145 | 144000 | – | B2 |
| 1.06 | 0.000138 | 130000 | Kd [9]: 0.927 nM; koff [9]: 0.000133 s⁻¹; kon [9]: 144000 M⁻¹ s⁻¹ | B3 |
| 1.49 | 0.000183 | 123000 | – | B4 |
| 1.41 | 0.000164 | 116000 | – | B5 |
| 0.998 | 0.000142 | 142000 | – | B6 |
| 1.49 | 0.000159 | 107000 | – | B7 |
| 2.06 | 0.000193 | 93900 | – | B8 |
| 4.77 | 0.000409 | 85600 | – | B9 |
| 3.44 | 0.000232 | 67600 | – | B10 |
| 2.63 | 0.000286 | 109000 | – | B11 |
| 3.47 | 0.000272 | 78500 | – | B12 |
| 1.2 | 0.000165 | 138000 | – | B13 |
| 1.89 | 0.000237 | 125000 | – | B14 |
| 1.77 | 0.000195 | 110000 | – | B15 |
| 2.02 | 0.000197 | 97400 | – | B16 |
| 1.25 | 0.000144 | 115000 | – | B17 |
| 1.74 | 0.000187 | 107000 | – | B18 |
| 1.31 | 0.000166 | 126000 | – | B19 |
